Data set [1] has as its system balloon-injured abdominal aorta plaque. Description: In vivo photodynamic therapy of rabbit aorta through flowing blood.
Experimental: Animals (one atherosclerotic and one normal rabbit, each injected with Mal-BSA-ce6 24 hours previously; and one atherosclerotic rabbit that received no injection) were anesthetized as before and a cylindrical diffusing tipped fiber optic (length of tip=2 cm, diameter=1 mm) was advanced to a position midway along the balloon-injured abdominal aorta. […] Light was delivered at a fluence rate of approximately 100 mW/cm of diffusing tip and a total fluence of approximately 100 J/cm was delivered. At the conclusion of the illumination, the fiber was withdrawn and the arteriotomy and overlying wound were closed. Animals were sacrificed 48 hours later. […] Complete aortas and iliac arteries were removed from the PDT treated normal and atherosclerotic rabbits and control (no Mal-BSA-ce6 injection) atherosclerotic rabbit and were examined by histology using H&E, Masson Trichrome and Verhoeffs stain.
Data set [2] deals with aortic plaque of atherosclerotic rabbits. To be noted: rabbit, in vivo. The procedure: For confocal fluorescence microscopy, selected parts of the aortas were snap frozen in liquid nitrogen and approximately 10-20 μm frozen sections were prepared. These sections underwent laser scanning confocal fluorescence microscopy to detect the tissue distribution of the ce6. The red intracellular fluorescence from ce6 together with green tissue auto-fluorescence was imaged in the cells in 10 μm frozen sections. Sections were examined with a laser scanning confocal fluorescence microscope. A Leica DMR confocal laser fluorescence microscope (Leica Mikroskopie und Systeme GmbH, Wetzler, Germany)(excitation 488 nm argon laser) and 4×−40× air immersion lens or a 100× oil immersion objective was used to image at a resolution of 1024×1024 pixels. […] These channels were overlaid using TCS NT software (Version 1.6.551, Leica Lasertechnik, Heidelberg, Germany) to allow visualization of overlap of red and green fluorescence. These sections were also stained by immunohistochemistry using macrophage specific monoclonal antibodies and conventional H&E staining. Other parts of normal and atherosclerotic aorta were cut into small pieces, weighed and dissolved in sodium hydroxide/SDS and the tissue content of ce6 was determined by spectrofluorimetry as previously described (Hamblin et al (2000) Br. J. Cancer 83:1544). […]

For data set [3], the system named is aortic and iliac plaque of atherosclerotic rabbits. In words: Intimal surface fluorescence by OMA-LIF system. Type of data set: in vivo, rabbit. An excerpt: The second measurement of intimal surface fluorescence was made by the OMA-LIF system described above. At least 15 separate fluorescence measurements were taken from each artery segment. In addition, the iliac artery through which the balloon was passed also sustained an injury due to its relatively small diameter compared to aortic section 5 and, therefore, developed atherosclerosis compared to the uninjured iliac artery. […] Sections 3, 4 and injured iliac of atherosclerotic compared to normal control had p values<0.0001, while section 5 and uninjured iliacs had p values<0.0005. Accordingly, the less severe plaques of section 5 are distinguishable from the macrophage-rich plaques of sections 3 and 4.
In FIG. 14a, a marked contrast was seen between a large aortic plaque and an area of the abdominal aorta 5 mm beneath the plaque. In FIG. 14b, another marked contrast was seen between the balloon injured iliac artery and the contralateral normal artery in the same rabbit. […] These spectra were obtained in a rabbit that had received an overdose of anesthesia. […] By palpation of the outside of the artery, the position of the catheter in relation to plaques was determined Thus, a novel method has been developed for targeting a photosensitizer composition to the activated macrophages of a vulnerable plaque with high specificity.

Data set [4] relates to experimental atherosclerotic lesions of the aorta. The class given is in vivo, rabbit. The procedure:
Male New Zealand White rabbits weighing 2.5-3.0 kg (Charles River Breeding Laboratories) were maintained on a 2% cholesterol-6% peanut oil diet (ICN) for 3 months. […] The femoral artery was then ligated, and the wound closed. The animals were allowed to recover from anesthesia and then returned to their cages.
Two to four millicuries of the ^99mTc-Ap4A-glucoheptonate, ^99mTc-AppCHClppA-glucoheptonate, or ^99mTc-glucoheptonate (control) was injected into marginal ear veins of groups of three rabbits with experimental atherosclerotic lesions. As a control, three unlesioned animals were injected with 2-4 mCi of ^99mTc-Ap4A-glucoheptonate. After radiopharmaceutical administration, serial gamma images were collected every minute for the first 5 minutes, every 2 minutes for the next 25 minutes, and every 5 minutes for the next 2.5 hours. In all of the rabbits, images were acquired in the anterior and lateral decubitus projections, including the heart and aorta, by using a standard field-of-view gamma camera (Series 100, Ohio Nuclear, Solon, Ohio) equipped with a high-resolution parallel-hole collimator and interfaced with a dedicated computer system (Technicare 560, Solon, Ohio). The pulse height analyzer was adjusted to record the 140 KeV photopeak of ^99mTc, and all images were recorded in a 256×256 matrix.
After acquiring the final images, the animals were sacrificed with an overdose of sodium pentobarbital. The aortas were removed, opened along the ventral surface, and mounted on styrofoam blocks. The aortas then were placed on the face of the gamma camera and ex vivo images were recorded for 10 minutes.

Data set [5] deals with J774 or RAW264.7 mouse macrophage-like cells versus non-target EMT-6 cells. Description: Cellular uptake of conjugates and free ce6. The class given is cell-based. To be noted: J774 and EMT-6 cells. The method, then:
J774.A1 (J774) and RAW 264.7 mouse macrophage-like cell lines, together with EMT-6 mouse mammary […] cells, were obtained from ATCC (Rockville, Md.). Cells were grown in RPMI 1640 media containing HEPES, glutamine, 10% fetal calf serum (FCS), 100 U/ml penicillin and 100 μg/ml streptomycin. They were passaged by washing with phosphate buffered saline (PBS) without Ca^2+ and Mg^2+ and by adding trypsin-EDTA to the plate for 10 minutes at 37° C.
For cellular uptake studies, cells were grown to approximately 90% confluency in twenty-four well plates and the conjugate or photosensitizer was added in about 1 ml medium containing approximately 10% serum to each well. […] The trypsin supernatant was checked for the presence of fluorescence to quantify any surface binding which might easily be removed by trypsin. The fluorescence was measured using an excitation wavelength of 400 nm and the emission scanned from 580 to 700 nm in order to calculate the peak area (λmax=664 nm). A series of dilutions in approximately 1.5 ml 0.1M NaOH/1% SDS of known concentrations of each separate conjugate and photosensitizer was scanned for fluorescence as above in order to prepare calibration curves to allow for quantitation of the ce6 by conversion of the measured peak areas into mol ce6 equivalent. […] Results were expressed as mol of ce6 per mg cell protein. […]

[6] abbreviates: atherosclerotic rabbit, conjugate and light.

For Mal-BSA-ce6, the “gross damage at necropsy in illuminated aortic section or surrounding tissue” value in data set [1] (atherosclerotic rabbit, 48 hours after PDT) is on record as “no gross damage visible”. Further, in data set [1] (setting [6]), the “histological changes in the illuminated section” value is “evidence of apoptosis (pyknotic nuclei) and an inflammatory infiltrate in the plaque”; the “necrosis in the illuminated section (histology)” value is “some coagulative necrosis”; the “overall effect of treatment on plaque histology” value is “favorable modifications of plaque histology and reduced vulnerability”. Besides, the “gross damage at necropsy in surrounding tissue” value in data set [1] (normal rabbit, 48 hours after PDT) is “some minor damage visible in the paraaortic muscle”. Besides, the histological changes entry in data set [1] (normal rabbit, photosensitizer composition and light) is on record as “Histological changes were not observed”. Further, in data set [1] (two rabbits that received composition and light, two days), the “ill effects of treatment before sacrifice” value is on record as “no ill effects”. The “extracted ce6 fluorescence per gram tissue, difference atherosclerotic versus normal rabbits” value in data set [2] was “significant”. In data set [3] (arteries with inflamed plaque (sections 3, 4 and injured iliac, p<0.0001)), the “intimal surface fluorescence, atherosclerotic versus normal rabbit” value is reported as “highly significant increases in fluorescence”. The “intimal surface fluorescence, atherosclerotic versus normal rabbit” value in data set [3] (sections 1 and 2) was “not significantly different”.

In the case of ^99mTc-glucoheptonate, in data set [4] (rabbit, in vivo), the “clearance of radioactivity from all organs, t1/2s” value lay in the range of 5 to 10 min; the “organs in which radioactivity accumulated” value was “accumulated in the kidneys and bladder”. The “accumulation of radioactivity in the aortic lesions” value in data set [4] (rabbits with experimental atherosclerosis) is on record as “no evidence of specific accumulation in the aortic lesions”.

Turning to chlorin e6 [ce6], in data set [5], the “uptake of unbound ce6 by receptor-positive and receptor-negative cells” value is “indiscriminate uptake”.

The values are drawn from US7809428B2, “Devices for detection and therapy of atheromatous plaque” (The General Hospital Corporation, priority 2001, dated 2010).
